Source: US20230270824A1, “INTERFERON-BASED CANCER TREATMENT METHOD AND PHARMACEUTICAL COMPOSITION” (XIAMEN AMOYTOP BIOTECH CO., LTD., priority 2019, published 2023)
Where “and” joins values, the source holds several entries; their conditions need not be identical. Identical values can stand only once.

How the values were obtained:
[1] = system: mouse fibroblast/encephalomyocarditis virus (L929/EMCV); test: Specific activity by mouse fibroblast/encephalomyocarditis virus (L929/EMCV) cytopathic inhibition method; assay type: cell-based; settings: stock solution; commercial mIFN-α4 (R&D) as the standard
Description: (§1) The bacterial endotoxin content of the deglycosylated mIFN-α4 stock solution was determined by the Limulus reagent method as lower than 60 EU/mg. specific activity was determined as 5.4×10^8 U/mg by using the commercial mIFN-α4 (R&D, catalog number 12115-1) as the standard, and by using the mouse fibroblast/encephalomyocarditis virus (L929/EMCV) cytopathic inhibition method.
as §1, with “PEG-mIFN-α4” for “deglycosylated mIFN-α4”, “15” for “60”, “Specific” for “specific”, “6.1×10^6” for “5.4×10^8”

[2] = system: transplanted liver cancer H22; test: Continuous vs intermittent administration, transplanted liver cancer H22 in mice (Example 4); assay type: in vivo, BALB/c mice; settings: continuous administration: 1 μg s.c. once every 48 hours, 21 times, Day 40 after tumor inoculation
[3] = Pharmacokinetic study of single subcutaneous injection in healthy BALB/c mice (double-antibody sandwich ELISA)
Description: 6-8 weeks old, SPF grade BALB/c mice (N=60, with fifty-fifty of male and female mice) were injected with a single injection of 1 μg/mouse PEG-mIFN-α4 subcutaneously on the back of the neck. Plasma samples were collected before the injection (0 h) and after the injection at 15 h, 24 h, 36 h, 48 h, 72 h, 96 h, 120 h, 168 h, 216 h, 264 h, 312 h, to determine the blood concentration. Phoenix WinNonlin 6.4 software was used to calculate the pharmacokinetic parameters.

[4] = system: transplanted liver cancer H22; test: Interferon combined with gemcitabine, transplanted liver cancer H22 in mice (Example 5); assay type: in vivo, BALB/c mice; settings: 108 days observation
Description: In this example, a comparative study on the efficacy of PEG-mIFN-α4 intermittent administration (once every 48 hours for three consecutive times, then drug withdrawal for 144 hours; for 8 rounds), PEG-mIFN-α4 continuous administration (once every 48 hours for 42 consecutive times), PEG-mIFN-α4 in combination with gemcitabine (PEG-mIFN-α4: once every 48 hours for three consecutive times, then drug withdrawal for 240 hours, 6 rounds; gemcitabine: once a week) on H22 transplanted liver cancer in mice was performed.
On the day when the tumor was inoculated, they were randomly divided into PEG-mIFN-α4 continuous administration group (N=24, female 12, male 12), PEG-mIFN-α4 intermittent administration group (N=24, female 12, male 12), the normal saline control group (N=24, female 12, male 12), the gemcitabine only group (N=24, female 12, male 12), and PEG-mIFN-α4 combined with gemcitabine group (N=24, female 12, male 12).
Gemcitabine was injected intraperitoneally, 60 mg/kg.
For the PEG-mIFN-α4 intermittent administration group, PEG-mIFN-α4 was administered once every 48 hours for three consecutive times, then drug withdrawal for 144 hours; for 8 rounds. For the PEG-mIFN-α4 continuous administration group, PEG-mIFN-α4 was administered once every 48 hours. For the PEG-mIFN-α4 combined with gemcitabine group, PEG-mIFN-α4 was administered once every 48 hours for three consecutive times, then drug withdrawal for 240 hours; for 6 rounds; and gemcitabine was administered once a week. For the gemcitabine only group, gemcitabine was administered once a week. For the saline control group, equal volume of saline was administered.
Survival analysis was performed for all groups to compare the differences between groups.

B1: PEG-mIFN-α4: deglycosylated recombinant mouse interferon α4 modified with 40 kD Y-type polyethylene glycol (YPEG-NHS); SEQ ID NO: 6 (protein)
chain: CDLPHTYNLGNKRALTVLEEMRRLPPLSCLKDRKDFGFPLEKVDNQQIQKAQAILVLRDLTQQILNLFTSKDLSATWNATLLDSFCNDLHQQLNDLKACVMQEPPLTQEDSLLAVRTYFHRITVYLRKKKHSLCAWEVIRAEVWRALSSSTNLLARLSEEKE
modifications: 40 kD Y-type PEG; deglycosylated; amino acid sequence of peginterferon murine 4
Specific activity [1]: 6.1×10^6 U/mg | Median survival period (Time after tumor inoculation, days) [2]: 38 days and 38.0 days | Individual blood concentration ([3]; collected at 96 h, individual mice 1-5, single s.c. 1 μg/mouse): 87.5 ng/mL | Cl_F—obs ([3]; mouse, in vivo, sc): 0.07 mL/h | T1/2 ([3]; mouse, in vivo, sc): 28.3 h | Tmax ([3]; mouse, in vivo, sc): 24 h | Vz_F—obs ([3]; mouse, in vivo, sc): 2.91 mL | Mean survival period (days post tumor inoculation) ([4]; continuous administration: 1 μg/mouse s.c. once every 48 hours, 42 times): 37.0 days | Mean survival period (days post tumor inoculation) ([4]; intermittent administration: 1 μg/mouse s.c. every 48 h x3, withdrawal 144 h, 8 rounds): 64.0 days
